Laboratory results taken from patent publication US20160347807A1, “TARGETING P53 AND ITS DNA-BINDING DOMAIN” (UNIVERSITY OF UTAH RESEARCH DOUNDATION, priority 2014, published 2016).
Entries after “also recorded” stand apart in the source; their conditions may differ.

Tests used:
Format in all cases: cell-based, human
T47D cells [1] = test: 7-AAD assay in T47D cells; details: 48 h after transfection, EGFP positive cells only
Description: (§1) Transfected T47D, MCF-7, MDA-MB-231, HeLa and H1373 cells were pelleted and resuspended in 500 μL PBS (Invitrogen) containing 1 μM 7-aminoactinomycin D (7-AAD) (Invitrogen) for 30 min prior to analysis following the recommended protocol from the manufacturer. The assay was performed 48 h after transfection for T47D, MCF-7 and H1373 and 24 h after transfection for MDA-MB-231 and HeLa. Only EGFP positive cells were analyzed by using the FACS Canto-II (BD-BioSciences) with FACS Diva software. EGFP and 7-AAD were excited with the 488 nm laser, and were detected at 507 nm and 660 nm, respectively. Independent transfections of each construct were tested three times (n=3).
(§2) Transfected T47D, H1373, SKOV-3 and HeLa cells were pelleted and re-suspended in 500 μL PBS (Invitrogen) containing 1 μM 7-aminoactinomycin D (7-AAD) (Invitrogen) for 30 min prior to analysis. T47D and H1373 cells were analyzed 48 h after transfection, while SKOV-3 and HeLa cells were analyzed 24 h after transfection (time points optimized empirically). Only EGFP positive cells were assayed using the FACS Canto-II (BD-BioSciences) with FACS Diva software as previously. EGFP and 7-AAD were excited at 488 nm, and detected at 507 nm and 660 nm, respectively. Independent transfections of each construct were assayed three times (n=3). The highest value (EGFP positive cells stained with 7-AAD) was set at 100%, and the lowest at 0% (relative 7-AAD) as previously.

HeLa cells = test: 7-AAD assay in HeLa cells; details: 24 h after transfection
Description: as §1, §2

SKOV-3 cells = test: 7-AAD assay in SKOV-3 cells
Description: as §2

H1373 cells = test: 7-AAD assay in H1373 cells; details: H1373 (p53 null), 48 h after transfection
Description: as §1, §2

T47D cells [2] = test: Rescue experiment using BFP-Bcl-XL (7-AAD) in T47D cells; details: 48 h after transfection, Bcl-XL overexpression
Description: T47D cells were co-transfected with 1 pmol of EGFP constructs and 1 pmol of BFP-Bcl-XL (BFP tag is necessary for gating Bcl-XL transfected cells). 48 h after transfection the 7-AAD assay was performed as described above. FACSCanto-II (BD-BioSciences) and FACSDiva software were used for EGFP and BFP gating. Excitation was set at 488 nm, and detected at 507 nm and 660 nm for EGFP and 7-AAD, respectively. BFP was excited at 405 nm and detected at 457 nm. Independent transfections of each construct were tested three times (n=3).

T47D cells [3] = test: TUNEL assay in T47D cells; details: 48 h after transfection
Description: T47D cells were harvested 48 h after transfection. In situ Death Detection Kit, TMR red (Roche, Mannheim, Germany) was used following manufacturer's recommendations as before. Cells were resuspended in PBS (Invitrogen) and analyzed via the FACSAria-II (BD-Biosciences, University of Utah Core Facility). EGFP and TMR red were excited at 488 nm and 563 nm, respectively, and FACSDiva software was used to analyze the data. Independent transfections of each construct were tested three times (n=3).

T47D cells [4] = test: Annexin V assay in T47D cells; details: 48 h after transfection
Description: 48 h after transfection, T47D cells were pelleted and resuspended in 400 μL of annexin-V binding buffer (Invitrogen) and incubated with 5 μL of annexin-APC (annexin-V conjugated to allophycocyanin, Invitrogen) for 15 min as before. Only transfected cells were analyzed as mentioned in 7-AAD assay. EGFP and APC were excited at 488 nm and 635 nm wavelengths, respectively and detected at their corresponding 507 nm and 660 nm wavelengths. Independent transfections of each construct were tested three times (n=3).

## p53m6-BakMTS: p53-BakMTS with K120A, R248A, R273A, R280A, E285A, E287A mutations
T47D cells [1]
  7-AAD positive cells (late apoptosis): not significantly different from their negative control; also recorded: complete loss in apoptotic activity compared to their non-mutated controls

## DBDK120E-BakMTS: DBD-BakMTS with K120E mutation
T47D cells [1]
  7-AAD positive cells (late apoptosis): not statistically significant from the negative control E-BakMTS

## p53K120E-BakMTS: p53-BakMTS with K120E mutation
T47D cells [1]
  7-AAD positive cells (late apoptosis): not statistically significant from the negative control E-BakMTS

## p53ΔC-XL: EGFP, p53ΔC (amino acids 1-322, lacks the C-terminus) and XL MTS
T47D cells [1]
  7-AAD positive cells (late apoptosis): statistically higher than the negative control E-XL; also recorded: not statistically significant from each other

## DBD-BakMTS: DBD of p53 cloned between EGFP and Bak MTS
HeLa cells
  7-AAD positive cells (late apoptosis): significant from their corresponding negative controls; also recorded: trend of higher apoptotic activity in HeLa cells compared to p53-BakMTS; also recorded: induces robust apoptosis, similar to, or greater than wt p53 with MTS; also recorded: outperformed DBD-BaxMTS; also recorded: induces apoptosis in all 3 cell lines
SKOV-3 cells; SKOV-3 (p53 null), 24 h after transfection
  7-AAD positive cells (late apoptosis): significantly higher than their negative control E-BakMTS; also recorded: trending higher; also recorded: induces late stage apoptosis
SKOV-3 cells; ovarian cancer cells SKOV-3
  apoptosis in SKOV-3 (assay not stated at place): triggers apoptosis
T47D cells [1]
  7-AAD positive cells (late apoptosis): significantly higher apoptosis compared to cells transfected with MTS negative controls; also recorded: trending higher; also recorded: induces robust apoptosis, similar to, or greater than wt p53 with MTS; also recorded: outperformed DBD-BaxMTS; also recorded: induces apoptosis in all 3 cell lines
H1373 cells
  7-AAD positive cells (late apoptosis): statistically higher from their negative control E-BakMTS; also recorded: significantly higher activities compared to their positive controls; also recorded: induces robust apoptosis, similar to, or greater than wt p53 with MTS; also recorded: outperformed DBD-BaxMTS; also recorded: induces apoptosis in all 3 cell lines

B1: DBDm6-BakMTS: DBD-BakMTS with K120A, R248A, R273A, R280A, E285A, E287A mutations (protein)
chain: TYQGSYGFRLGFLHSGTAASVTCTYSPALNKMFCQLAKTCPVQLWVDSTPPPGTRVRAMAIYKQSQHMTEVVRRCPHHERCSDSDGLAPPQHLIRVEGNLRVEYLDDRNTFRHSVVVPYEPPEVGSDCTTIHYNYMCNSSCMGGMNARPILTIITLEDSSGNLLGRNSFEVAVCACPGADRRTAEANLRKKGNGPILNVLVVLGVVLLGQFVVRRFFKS
modifications: left off: large carriers
notes: DBD-BakMTS with K120A, R248A, R273A, R280A, E285A, E287A mutations
T47D cells [1]
  7-AAD positive cells (late apoptosis): not significantly different from their negative control; also recorded: complete loss in apoptotic activity compared to their non-mutated controls

B2: TD-XL: EGFP, tetramerization domain of p53, XL MTS (protein)
chain: LDGEYFTLQIRGRERFEMFRELNEALELKDAQAGRKGQERFNRWFLTGMTVAGVVLLGSLFSRK
modifications: left off: large carriers
notes: EGFP, tetramerization domain of p53, XL MTS
T47D cells [2]
  apoptotic activity (7-AAD) on cotransfection of BFP-Bcl-XL (rescue): reduction in apoptotic potential
T47D cells [3]
  TUNEL positive cells (DNA fragmentation): not statistically different from the negative control; also recorded: statistically significantly lower than p53-XL
T47D cells [4]
  Annexin V positive cells (apoptotic potential): not statistically significant from the negative control
T47D cells [1]
  7-AAD positive cells (late apoptosis): statistically different from the negative controls but is also significantly lower than p53-XL

B3: PRD-XL: EGFP, proline-rich domain of p53, XL MTS (protein)
chain: APRMPEAAPPVAPAPAAPTPAAPAPAPSWPLSSSVRKGQERFNRWFLTGMTVAGVVLLGSLFSRK
modifications: left off: large carriers
notes: EGFP, proline-rich domain of p53, XL MTS
HeLa cells
  7-AAD positive cells (late apoptosis): statistically significant from p53-XL
T47D cells [2]
  apoptotic activity (7-AAD) on cotransfection of BFP-Bcl-XL (rescue): not altered by Bcl-XL overexpression
T47D cells [3]
  TUNEL positive cells (DNA fragmentation): not statistically different from the negative control; also recorded: statistically significantly lower than p53-XL
T47D cells [4]
  Annexin V positive cells (apoptotic potential): not statistically significant from the negative control
T47D cells [1]
  7-AAD positive cells (late apoptosis): not statistically significant from the negative control E-XL indicating no apoptotic activity; also recorded: statistically significantly lower than p53-XL
